The domain aggregation screens of Martell et al. (2025)

Assay: soluble fraction after stress (log2 fold change); higher = more stays soluble; pooled small domains, quantitative proteomics
Settings: stress: 75 degC
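Further: 20 min heating vs room temperature control held 20 min.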

Sequence	soluble fraction (log2)
HMKQPVPDEIYFKRLANATEALGRYPRASERKKFGLNMSKRRYPTLTDFINKAIELGYVEDFR	-0.833
HMKQQAYEQGKAAYQSGDWLRAVTQLGQVKEAGEKNGEVDHLLGNAYMKLGQFESAAYAYNSALEDVA	0.53
HMKQTMIVVMEKDAPQSQIDDMVKRIEGLGLKAHTIVGTQRTVVAAIGEKREDTRESLAGSPGVAEVVPIL	0.239
HMKQYVEPASETEKMVVELWEKVLLTEKIGMHDDFFELGGHSLKAMRLISLYHQEFNVRLSLKSLFEKLK	-0.241
HMKRAVGLDEYRDSIVLKKPEGYTEESYAAYKNAYDALMALDSKETTAEMFANAKSAFEAAQAGLVQKP	0.119
HMKRIFEKKVVTESLNGLRLDKAAATLFADFSRNELGQWIKDEALLVNGKAKKVKEKVSEGDVLALDVELI	0.203
HMKRISDEDLLVMRRIDEVHTYHPTWGYRTITRILRRDDHLLINPKKVRRIMRDMGIYTIYPK	-0.0338
HMKRITAVISQKKGRDYYYIIVSYYLSNGKRVQRWIKTEFPINGNNKRKLEQKRIEVLQEWQDKLV	-1.23
HMKRLQEQAYDYLKELILSGKMIENEIYSETKLASEIGISRTPIRDALQRLSQDGFIDIIPSKGFRIH	-0.734
HMKRMSKKQLSAVIEKYFSSQPGVTLTLKDIFRNLHLDTHPLKMIALDILEEMSWDDVIMKVSDTSYALNT	0.194
HMKRNLESVLDHIEGIGPKRRKALYKHFGNLDAMRVAELEELESVEGMNKKAALAVYEFFRRNS	0.386
HMKRNTKAEVLEILLNSGETPVSGERLAENLGISRNAVWKAVTALKEDGYNISAKRNSGYILNKS	-0.143
HMKRREENLRRLALSTAERVKRKGKKEILNPMSPQERRIIHLTLQNNKEVVTHSEGEDPYRRVIISPRN	-0.397
HMKRRSLQVGDIVQVRSLNVKGEVVSIGKNEVVVAVGRLQMRAGFDDLDFKERPKEEREVESV	-0.467
HMKRSFGSVRQLRSGNYQARYTGPDTVRHTSPVTYTSKMDAEAWLVDERRKISSGTWTPPAR	-0.193
HMKRSVIVTAERAEVRQKADEGSALVFEAEKNVSLEYLEAAPGGWVKVRHLDGQSGFVRGNQI	-0.309
HMKRTKLEEATEWLRDRLSDGVKYNGEELLREGESADMARRTLRRAAQELGVIIERERGARGRWFWSLP	-0.897
HMKRTLLLEGRTIPYELTQKPVKNINIRVHADGSVRVSAGPWVSPEAVDAVLRQRSAFLLRALDQFAAQAP	-1.91
HMKRVPFAFAGDMLRWAAWLYHVEKRTQNEIAEELEVSRQTVANYLSEAMSQGLVQVQLRSDIIE	-1.98
HMKSAIGEEKAENFAFADLGMDPLSAEGVRTEFGFEQGQFVYKVYFTADGTEYEYWIKASDGSVVKKGMDL	-1.53
HMKSAIKQNILLYLSNKGVTSYEFYKISGVTRGILQQSNGISEDNIAKFLAYAPDVNIEWLLTGKGDMLKH	-1.41
HMKSATGKIPDFISDLPVDEFVRELIVTNAFQPLNKFKEVQNHIGSALKIYVDELTEKRANGTVHILYSHK	0.46
HMKSAYADVAIAKVQDYVNVRAENNEDSEVLGKLYNNSAATVLETTDDGWYKISSGSVTGYVKSEYVVVG	-0.111
HMKSEMYIDLSNALLKMSERDKELLTYRYTMEMSSKEISQITGIKESNVNSYIRRAREKLLKIFNAMNK	-3.73
HMKSFDERQAALNELAKVIEGTGRKAEQDAEFRREQNQLMIDKIDEQLKGDLTDSQREELKKERAALARK	0.174
HMKSGLLNLSTRKQEKIKQALLSEFSNVSLLEAKVANIVTLAEISRGSFYTYFEDIYDAYQWLASI	-0.513

Sequence	soluble fraction (log2)
HMKSIFIRADELAAELDVSKALAYKMINQWNEELKAKGYTTVGGRVSRQYYYEKIYGAENVFDF	-1.76
HMKSILDDVVGLGPVRKKALLSAAGGFRKLRDMDVDEVIGLGAVPEEVAREVVTVLAQYNGERDRVEGL	-0.146
HMKSILSEIPGIGPKKRKSLMMQFGSVKNISEASLKDLSSTKGINSNLSKEIFNFFSVEKNN	-0.0299
HMKSKNILLGEYKGKEVHVGEGKYGPFILYDKKFKSIGAYLTENSLMLKDLTIEDYSKIMKFTENSNSKS	-0.91
HMKSKNRLTKSYLDSIPGVGRKRKSILLRYFGSIDQIKRASSEDIANVPGIGKITSDLVYNYFNQ	-0.811
HMKSLAQELVDALGDRIRDGRLKVGDKLPSEAAIEAQYGVSRTVVREAISRLQAAGLVVTRHGIGTFIVGI	-2.45
HMKSLLDQINGIGAIRKRALLNHFGSARAVESASLDEIKSVEGVEAKVAKKIYNFFHEYKNMLR	-1.51
HMKSLLSRREQEVLELVSRGFSYSEIAELKNLSVHTIQTHIKSLYGKLEVHSKMEAVLEATRMGLLPQ	-2.34
HMKSSLAKNLETLMQERQISQTRLSKISGVSQSYIFKILNDQIKKPSLDTLEKLATALDSTVAQLNH	-0.433
HMKSSTEIIYSDFLREVSNGQISEVTIQGDFVRGLFLSGSSFQTYAPKDSNLINILRDKKVRIKVHPP	-1.07
HMKSTELSIIEALRVLGLKHGASQDSIKKSYRRLVKQHHPDLGGSADSFRKVNEAYQLLIMN	-0.749
HMKSVILQLHPETLRWIREEAQADMADASVIQLLNDWELGTKKPTLSQVQKLSHETHIPFGYFFLKEKPA	-0.64
HMKSVQIPQSITVKEFSQAIEVSVADVIKKLMSMGVMVSQNKEINVDTAILVGEEFGVTVNVA	0.609
HMKSVTVIFKESGNVVSSKKLSVVATAQYVDKSRITAPAGYRIATTDSKLKISENNTVTVEVK	-0.496
HMKSYTYNPNYLSDYNAYRLGIPLEALERLQLHRSTGRYVNSLSDFQSVTGISDSLKHSLSSSLRFPN	-1.36
HMKTDLQIQQDVMAELKWEPKVNAAHIGVEVKHGVVTLSGHVDSFAEKWNAEQAAKRVAGVKFIAIELDV	-2.1
HMKTEIKSPLPGIVLKIFVRTGEYVDKNQRLFSLEAMKMENEIKAERAGVIAGIRISEGQSVLQDEVIMEM	-3.7
HMKTFQSYQTTSMSNVNLRKRANGTSTILKRIKVGDTVTVVGKSGNYYQIQFDGKEGYALIKYIDGTDSGA	-1.95
HMKTFSTRLIALREAIGVNQSELARRVGVTPQAVQKWESGANGPRGKRLEKLASELRSTVGYLVSGEGDG	-0.434
HMKTGAKLKNLRKMKKLSQEEVAKVLNLSYSTLSRWENDTRIPTYEDLFKLGQFYGVSVDYLSDPN	-0.98
HMKTGNIITVSLVWKGKYYMIRMFFPSASRPTRSDVQNEIEKVYPGSKLSTFSVSDYEPGQPLLQV	-1.6
HMKTGNPYAQRNTADMYNYGRGIEKDSYLAFVWYFAAYKQGNDNAKPQIDSITASGHLSPNQQLHAKIE	-0.243
HMKTIQVGSTVRVNQGAKTYSGGGLASFVYKRNHKVSQLQGDRAVITYEGTVVAAVHVSDLSLIH	-0.192
HMKTLELIAAIRKRIAGGYAGADGRLPNIGEIAKDFSVSPMTAQKAVRALVEAGVLTSTRRKGVFLKQPAS	-2.09
HMKTLGMDKGVNIALNDAGLRAEDVSNLSAHYDTEDGVPVYEIKFTAGGFSYEYQIKASDGTIIEADRDAA	-0.00738
HMKTMAVYPVGTRVLTSDGEIGVVEKQNSEAPERPVIKILKGADGHDYEKPDFKDLMKILTLFIVDTI	0.182

Sequence	soluble fraction (log2)
HMKTMSLSSIEKAIYKTKYENEPTSQRLSRIESSVFGTNFSQDSESERIARISSAINAQKSAK	0.0313
HMKTMTTIRKGSRGDTVATLQRKLNLIADGIFGPITDEAVRDFQKSHGLAVDGIVGPKTWAALGVGS	0.00482
HMKTNQINVSGLSKEKNFEVLESLDVYKFYNLFFLNKIKIDQLINSYNHIDNYSVFKKYPSSLIVKLSE	0.0213
HMKTPETSEYVVQAGDSLRRILTERYGAKEQDLPYLYRQFRLLNPKVSSLDNIHAGTKVRIPLVASVL	-0.135
HMKTPRKVFTVLIRNTEYDVYDIDGKEHQGYNDTPKTWWLYHSERLPEGMIPPIDSDSWKPYSVGT	-1.27
HMKTTKESLLEYIQREVFTDSIHKEGLSTNEIADAFQIQRSNVSSLLNTLVKEGKLEKTTGRPVLYRIPEK	-0.126
HMKVEFDAMDKRILELMAKEYDTVLMARHLPLTPIVIDVRKKRIREVLNLPDATDAEIVIEAKEKDII	-1.08
HMKVEIVRVVKDIHIGDEITKDMVRTVEVGGYNLPDGVVKDTATVIGRFASADMVPGDYIISSKIADAP	-0.378
HMKVELSENEKIIYDLLSNQEVLLSEIKDKAELSNKAWDKSTKSLRKLGLVIVEKKDDNIYISKS	-0.101
HMKVGEIIKAKREELKIPLVNFAKELDISQGYLSQIENGIKTNPNLDIILKIIHRLDIDLAMLL	-1.93
HMKVIAEESYRILVDAIEKLPPQMKSIMQLALEGKSNPEIAETLNISGETVHSQKKIAYRKLRVYLKD	-2.36
HMKVIETKYNTYVVKSGDTLYSVAKKYGISVTELKEINDLSNNTLSIGQKLLVPATTIIIDE	-0.637
HMKVNMIIVMKPGARETDIQEVSNVLKSAGLGVHISKGTERTIIGVIGDKRLLNGIPLDLMHGVDKLVPIM	-1.24
HMKVNQFEVEGNQRYSTEEIAKASGVSKGDNLFLVNKTETARKLLDELAYVRSVNIKRKLPDTLVITVAE	-0.032
HMKVPDVQYMNKDSAIEALTANELKYTIVEAENENVAAGVVISQSVERDSQVAPGTSVELVVSTG	0.212
HMKVQEMTANSFLTQWEAGNVKTLDILPEGIIKGELNDGTKFQLYYSSAAGLIDDVKKNPEKFANTTVSEK	0.0538
HMKVQEVDYGTFLTMVDEGKVNQVDIENSKQITFNTKGDKNKVYITGQVNDPELVNRLYKAGVEFSQEIP	0.273
HMKVSNWYFNGAPSATTPPTSQWTTEKDKKAHIGDTFTSLDKSPSPNAGKSWRYTPSYTWEEIV	0.655
HMKVSRTAVKLHHANAVEVAKKLQPLFVVGDVQIEPVKDAGIILLKGPASTLADLRESIVQMDHTA	-0.188
HMKVTRWEDTGMKPAEAQEWQHYDFKPQEAMNWRDAGFVPLVARTWSDKGFDASEAQAWRDSVRNS	-0.618
HMKVVEKHIVPQIQNPIRLQEYASSIFKTITTRSGIKKAIKKQLILLNRKPANTGDWIKEGQLLELLAEE	-2.53
HMKVYIKDISDLSDKLKSLLIENDIDDSNKLFEVEDQVLLEIKGLGSKTIDKIKDIVTEYLKKNN	-0.266
HMKVYPIMEAIANNNIELVKLLLEYHADLNIKDSNGNTPLALAKETGAKEVEDLLLQWMKQHT	-1.06
HMKWGDTPTVEVPNLIGMKKKDLQTQLVDLKLDISGDGEKVIKQSPEAGAKVKEGSKIRIYFG	-0.332
HMKWYDSDKGFGFLSQEEGEDVYVRSSALPAGVEGLKAGQRVEFGIASGRRGPQALSL	-0.31
